Source: PMC6829319, “Combination of SAXS and Protein Painting Discloses the Three-Dimensional Organization of the Bacterial Cysteine Synthase Complex, a Potential Target for Enhancers of Antibiotic Action” (International Journal of Molecular Sciences, 2019)

B1: serine acetyltransferase (CysE) from E. coli (enzyme)
chain: MSCEELEIVWNNIKAEARTLADCEPMLASFYHATLLKHENLGSALSYMLANKLSSPIMPAIAIREVVEEAYAADPEMIASAACDIQAVRTRDPAVDKYSTPLLYLKGFHALQAYRIGHWLWNQGRRALAIFLQNQVSVTFQVDIHPAAKIGRGIMLDHATGIVVGETAVIENDVSILQSVTLGGTGKSGGDRHPKIREGVMIGAGAKILGNIEVGRGAKIGAGSVVLQPVPPHTTAAGVPARIVGKPDSDKPSMDMDQHFNGINHTFEYGDGI
notes: serine acetyltransferase (CysE), E. coli; Hexamer (dimer of trimers); source: E. coli BL21(DE3) or BL21(DE3) Tuner, pSH21p vector, purified, tag removed as previously described [50]
B2: O-acetylserine sulfhydrylase isozyme A (CysK) from E. coli (enzyme)
chain: KIFEDNSLTIGHTPLVRLNRIGNGRILAKVESRNPSFSVKCRIGANMIWDAEKRGVLKPGVELVEPTSGNTGIALAYVAAARGYKLTLTMPETMSIERRKLLKALGANLVLTEGAKGMKGAIQKAEEIVASNPEKYLLLQQFSNPANPEIHEKTTGPEIWEDTDGQVDVFIAGVGTGGTLTGVSRYIKGTKGKTDLISVAVEPTDSPVIAQALAGEEIKPGPHKIQGIGAGFIPANLDLKLVDKVIGITNEEAISTARRLMEEEGILAGISSGAAVAAALKLQEDESFTNKNIVVILPSSGERYLSTALFADLFTEKELQQ
notes: Carries the pyridoxal 5'-phosphate (PLP) cofactor; Dimer; source: E. coli BL21(DE3) or BL21(DE3) Tuner, pET21P vector, purified as previously described [50]

Tests used:
[1] = biological target: B2; experiment: other fluorescence titration; PLP fluorescence emission of CysK at 500 nm after excitation at 412 nm with increasing concentrations of CysE; 20 °C; stoichiometric titration, ratio of CysE to CysK; details: both partners purified
[2] = biological target: the molecule itself; experiment: SAXS; solution scattering at 10 °C; 20 mM sodium phosphate, 85 mM NaCl, 2 mM EDTA, 10 mM 2-MCE, pH 7.5; 0.5-1.5 mg/mL; CysK, CysE and CS (gel filtered and dialysed before) each measured; ab initio DAMMIF and SASREF rigid body models

Row | Binder | stoichiometry N [1] | stoichiometry N [2]
1 | B1 | 1.7 | 6
2 | B2 | – | 2
